Test results as given in the supplement of paper PMC10126150.
± gives the standard deviation of the averaged measurements.

System: ATP
Assay: switch fluorescence ratio, 500 uM ATP over buffer (Cy3 cluster intensity, sum of 5 cycles each) (fold (ratio)); higher = stronger signal-on switching upon ATP binding; sequences stand for … in TCGTCGGCAGCGTCAGATGTGTATAAGAGACAGTTTTTTTTTTTTTTTTTTTTTTTTT…TC
Conditions: aptamer strand: ATP DNA aptamer (quencher-CACCTGGGGGAGTATTGCGGAGGAAGG + anchor), 100 nM annealed; ATP concentration: 500 uM
Method in brief: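 After annealing to 100 nM quencher-labelled ATP aptamer, Cy3-labelled switching-strand clusters on a modified Illumina MiSeq flow-cell were imaged in selection buffer. A second image followed after 15 min with 500 uM ATP at 22 °C, and five such buffer/ATP cycles were done, each separated by NaOH stripping and re-annealing. The fluorescence ratio, averaged per switch-domain sequence, is summed target-cycle over summed buffer-cycle Cy3 intensity per cluster, with clusters outside 100-1000 RFU excluded.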
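Note: ATP exposure 15 min at 22 °C before imaging.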

Sequence | switch fluorescence ratio
AAGTTTAATT | 1.02 ± 0.012
AAGTTTAGTC | 1.03 ± 0.034
AAGTTTATAA | 1 ± 0.015
AAGTTTATGC | 0.977 ± 0.025
AAGTTTGAAT | 0.978 ± 0.013
AAGTTTGCTA | 1.01 ± 0.031
AAGTTTTAAG | 1 ± 0.021
AAGTTTTCTC | 0.951 ± 0.0028
AAGTTTTTGC | 1.01 ± 0.019
AAGTTTTTGT | 0.9997 ± 0.0081
AATAAACAGA | 1.02 ± 0.017
AATAAAGCCT | 1.15 ± 0.29
AATAAAGGGA | 0.9841 ± 0.0045
AATAAATCGT | 0.998 ± 0.024
AATAAATT | 0.9585 ± 0.0081
AATAAGCGCA | 0.993 ± 0.037
AATAAGGGAT | 1.01 ± 0.045
AATAAGGTTA | 0.984 ± 0.022
AATAATATTA | 0.975 ± 0.019
AATAATGTCG | 1.02 ± 0.06
AATAATTACA | 0.9987 ± 0.0094
AATAATTGGT | 1.01 ± 0.012

Sequence | switch fluorescence ratio
AATACATTCT | 1.05 ± 0.011
AATACCAAGA | 0.9889 ± 0.0067
AATACGAATA | 1.92 ± 1.2
AATACGGGCG | 1.008 ± 0.0056
AATACTAAGG | 1.04 ± 0.007
AATACTCGGG | 1.07 ± 0.033
AATAGAGGGA | 0.977 ± 0.045
AATAGCAGGC | 1.06 ± 0.028
AATAGCGGAA | 1 ± 0.015
AATAGCTATT | 0.986 ± 0.023
AATAGGAGGC | 1.05 ± 0.053
AATAGGCAAT | 1.16 ± 0.034
AATAGGGAGG | 0.979 ± 0.025
AATAGGGGAG | 1 ± 0.037
AATAGGGGGT | 0.996 ± 0.018
AATAGGGTGC | 1.07 ± 0.045
AATAGGGTTT | 0.967 ± 0.011
AATAGTATAG | 0.966 ± 0.02
AATAGTGGTG | 1 ± 0.022
AATAGTTTCA | 1.01 ± 0.014
AATATAGAAG | 0.984 ± 0.033
AATATAGAGA | 1.01 ± 0.011

Sequence | switch fluorescence ratio
AATATAGGAC | 0.972 ± 0.013
AATATAGGTA | 1.02 ± 0.011
AATATAGTAT | 0.998 ± 0.034
AATATATTTT | 0.999 ± 0.047
AATATGCAGG | 0.9657 ± 0.0034
AATATGGCCG | 0.985 ± 0.037
AATATGTGTT | 1.02 ± 0.031
AATATTATGA | 1.01 ± 0.012
AATATTGAAC | 0.99 ± 0.036
AATATTGTGG | 0.974 ± 0.019
AATATTTAGA | 0.9837 ± 0.0059
AATATTTTGA | 1.02 ± 0.016
AATCAAGAGT | 1.028 ± 0.0031
AATCACGGAG | 1.019 ± 0.0061
AATCATAGTT | 1 ± 0.014
AATCATGGTT | 1 ± 0.028
AATCATGTTG | 0.981 ± 0.033
AATCCAATGT | 1.003 ± 0.0069
AATCCGGGGG | 0.9661 ± 0.0022
AATCCGTGTG | 1.01 ± 0.019
AATCGAGGGA | 1 ± 0.027
AATCGAGTCC | 1.107 ± 0.011

Sequence | switch fluorescence ratio
AATCGGAGCT | 1.09 ± 0.026
AATCGGATAA | 1.05 ± 0.019
AATCGGCACG | 1.01 ± 0.02
AATCGGGGGA | 1.01 ± 0.048
AATCGGGTGT | 1.11 ± 0.047
AATCGGGTTG | 1 ± 0.019
AATCGGTTCT | 0.979 ± 0.05
AATCGGTTGG | 0.966 ± 0.019
AATCGTCTGG | 0.993 ± 0.019
AATCGTGGTA | 1.01 ± 0.029
AATCTCGGCC | 0.986 ± 0.015
AATCTGGGTA | 0.991 ± 0.016
AATCTGTGAA | 1 ± 0.012
AATCTTCTGT | 0.982 ± 0.04
AATGAACGGG | 0.981 ± 0.0089
AATGAACTCT | 1.02 ± 0.034
AATGAATAGA | 1.012 ± 0.008
AATGAATGGG | 0.981 ± 0.018
AATGAATTTG | 0.975 ± 0.043
